# Results taken from patent publication US20040265235A1, “Magnetic resonance contrast-enhancing agents and method for detecting and imaging artherosclerotic plaque” (priority 2003, published 2004).
# Assay: MR T1 relaxivity of contrast agents
# Type: physicochemical
# Settings: globular versus elongated conformation
# Experimental: A low relaxivity or long relaxation time is associated with an elongated molecule such as a highly substituted Gd-DTPA-PLL, in which the Gd can rotate rapidly, having a relaxivity of about 8 sec^−1 mM^−1. When the relaxivity of a peptide contrast agent was high, the uptake coefficient of such an agent was invariably low, evidently due to the absence of a reptation movement of the contrast agent molecule, resulting in the exclusion of the contrast agent from narrow passages. Thus, it is important to establish that the peptides being compared for optimum length are all of the same conformation. Relaxivity values of the Gd-PLL for various lengths were tested to be between 7.5 and 10 for average chain length of 92, 219, 455, 633, and 1163 residues, in a 2 Tesla magnet (2 T) at 80 MHz and 23° C.
substance,measurement,value
albumin,relaxivity,about 15 sec^−1 mM^−1
